Test [1] deals with T1, CD3 (UniProt P07766 23-207).
T1 construct: whole, on cells; on cells it stands in the TCR/CD3 complex; also called CD3 on Jurkat cells
In words: flow cytometry, serial dilution on Jurkat cells (CD3-expressing), PE anti-human Fc detection. The protocol:
(§1) Binding of trivalent, bispecific fusion proteins to HER3-expressing (LIM1215, MCF-7) and CD3-expressing (Jurkat) cell lines was analyzed by flow cytometry. 2×10⁵ cells/well were incubated with a serial dilution of trivalent, bispecific antibodies for 1 h at 4° C. followed by detection using a PE-conjugated anti-human Fc antibody (Jackson ImmunoResearch Laboratories Inc). […] Concerning binding to the CD3-expressing cell line Jurkat, the trivalent, bispecific antibodies in the (1-2)+1 and in the (2−1)+1 orientation bound with EC₅₀ values in the low nanomolar range.

In test [2] the target is T2, HER3 (UniProt P21860 20-1342, limits assumed).
T2 construct: whole, on cells; the cell lines are human tumor lines
Description: flow cytometry, serial dilution on LIM1215 cells (HER3-expressing), PE anti-human Fc detection. The procedure:
as §1
(In general: In flow cytometry, cells or beads pass a laser one at a time.)

Test [3] deals with T2, HER3. Description: cell-based or functional assay.
The target of test [4] is T2, HER3. In words: flow cytometry, serial dilution on MCF-7 cells (HER3-expressing), PE anti-human Fc detection. The procedure: as §1
The target in test [5] is T3, EGFR (UniProt P00533 25-1210, limits assumed).
T3 construct: whole, on cells; the cell lines are human tumor lines
In words: flow cytometry, serial dilution on SKBR-3 cells (EGFR-expressing), PE anti-human Fc detection. The protocol: (§2) Binding analysis of the trivalent, bispecific antibodies was performed by flow cytometry using tumor cell lines with different EGFR-expression levels (FIG. 20) (Table 12). Adherent cells were washed with PBS and shortly trypsinized at 37° C. Trypsin was quenched with FCS-containing medium and removed by centrifugation (500×g, 5 min.). Target cells (FaDu, LIM1215, SKBR-3, T-47-D, MCF-7 and Jurkat cells) at 1×10⁵ cells/well were incubated with a serial dilution of trivalent, bispecific antibodies for 1 h at 4° C. After removing excess of recombinant protein by washing with PBA (PBS, 2% FBS, and 0.02% sodium azide), bound protein was detected using PE-conjugated anti-human Fc mAb (Jackson ImmunoResearch Laboratories Inc). Fluorescence was measured using MACSquant VYB (Miltenyi Biotec) and data were analyzed using FlowJo (Tree Star). Relative median fluorescence intensities (MFI) were calculated as followed: relative MFI=((MFIₛₐₘₚₗₑ-(MFIdetection-MFIcells))/MFIcells).

Test [6] deals with T3, EGFR. In words: flow cytometry, serial dilution on MCF-7 cells (EGFR-expressing), PE anti-human Fc detection. The procedure: as §2
Test [7] deals with T3, EGFR. Description: flow cytometry, serial dilution on T-47-D cells (EGFR-expressing), PE anti-human Fc detection. The procedure:
as §2

Test [8] concerns the target T1, CD3. Description: flow cytometry, serial dilution on Jurkat cells (CD3-expressing), PE anti-human Fc detection. The protocol: as §2
The source holds these as a separate data set.

The target in test [9] is T3, EGFR. In words: flow cytometry, serial dilution on FaDu cells (EGFR-expressing), PE anti-human Fc detection. The procedure: as §2
Test [10] addresses T3, EGFR. In words: flow cytometry, serial dilution on LIM1215 cells (EGFR-expressing), PE anti-human Fc detection. The protocol: as §2
In test [11] the target is T3, EGFR. In words: cell-based or functional assay.

Like-named read-outs stand apart in the source and are kept apart here.

As usually defined, the EC50 is the concentration needed to bring the measured effect to its halfway point. A low value points to higher potency in that assay.

B1: scDb/scFv-Fc (1-1)+2, trivalent bispecific anti-HER3×anti-CD3 (bispecific antibody)
chain 1: QVQLQQSGPGLVKPSQTLSLTCAISGDSVSSNRAAWNWIRQSPSRGLEWLGRTYYRSKWYNDYAQSLKSRITINPDTPKNQFSLQLNSVTPEDTAVYYCARDGQLGLDALDIWGQGTMVTVSSGGGGSQAGLTQPPAVSVAPGQTASITCGRDNIGSRSVHWYQQKPGQAPVLVVYDDSDRPAGIPERFSGSNYENTATLTISRVEAGDEADYYCQVWGITSDHVVFGGGTKLTVLGGGGSGGGGSGGGGSQVQLQQSGPGLVKPSQTLSLTCAISGDSVSSNRAAWNWIRQSPSRGLEWLGRTYYRSKWYNDYAQSLKSRITINPDTPKNQFSLQLNSVTPEDTAVYYCARDGQLGLDALDIWGQGTMVTVSSGGGGSQAGLTQPPAVSVAPGQTASITCGRDNIGSRSVHWYQQKPGQAPVLVVYDDSDRPAGIPERFSGSNYENTATLTISRVEAGDEADYYCQVWGITSDHVVFGGGTKLTVLAAADKTHTCPPCPAPPVAGPSVFLFPPKPKDTLMISRTPEVTCVVVDVSHEDPEVKFNWYVDGVEVHNAKTKPREEQYNSTYRVVSVLTVLHQDWLNGKEYKCKVSNKGLPSSIEKTISKAKGQPREPQVCTLPPSRDELTKNQVSLSCAVKGFYPSDIAVEWESNGQPENNYKTTPPVLDSDGSFFLVSKLTVDKSRWQQGNVFSCSVMHEALHNHYTQKSLSLSPGK
chain 2: DIQMTQSPSSLSASVGDRVTITCRASQDIRNYLNWYQQKPGKAPKLLIYYTSRLHSGVPSRFSGSGSGTDFTFTISSLQPEDIATYYCQQGNTLPWTFGQGTKLEIKRGGGGSGGGGSGGGGSQVQLVQSGAEVKKPGSSVKVSCKASGGTFSGYTMNWVRQAPGQGLEWMGLINPYKGVSTYNGKFKDRVTITADKSTSTAYMELSSLRSEDTAVYYCARSGYYGDSDWYFDVWGQGTLVTVSSAAADKTHTCPPCPAPPVAGPSVFLFPPKPKDTLMISRTPEVTCVVVDVSHEDPEVKFNWYVDGVEVHNAKTKPREEQYNSTYRVVSVLTVLHQDWLNGKEYKCKVSNKGLPSSIEKTISKAKGQPREPQVYTLPPCRDELTKNQVSLWCLVKGFYPSDIAVEWESNGQPENNYKTTPPVLDSDGSFFLYSKLTVDKSRWQQGNVFSCSVMHEALHNHYTQKSLSLSPGK
notes: The scDb is monospecific for HER3; the CD3 site sits in the scFv arm; also called scDb3-43x3-43-Fc(hole)Δab + scFvhuU3-Fc(knob)Δab
Regarding B1, the EC50 came to 700 pM in test [1], 882 pM in test [2] and 400 pM in test [4]. Besides, the “EC50 of proliferation of CD4+ T-cells, MCF-7 co-culture” value in test [3] was 393 pM. Moreover, the “EC50 of proliferation of CD8+ T-cells, MCF-7 co-culture” value in [3] was 191 pM.

B2: scDb/Fab-Fc (1-1)+2, trivalent bispecific anti-HER3×anti-CD3 (bispecific antibody)
chain: B1 chain 1
heavy: QVQLVQSGAEVKKPGSSVKVSCKASGGTFSGYTMNWVRQAPGQGLEWMGLINPYKGVSTYNGKFKDRVTITADKSTSTAYMELSSLRSEDTAVYYCARSGYYGDSDWYFDVWGQGTLVTVSSASTKGPSVFPLAPSSKSTSGGTAALGCLVKDYFPEPVTVSWNSGALTSGVHTFPAVLQSSGLYSLSSVVTVPSSSLGTQTYICNVNHKPSNTKVDKKVEPKSCDKTHTCPPCPAPPVAGPSVFLFPPKPKDTLMISRTPEVTCVVVDVSHEDPEVKFNWYVDGVEVHNAKTKPREEQYNSTYRVVSVLTVLHQDWLNGKEYKCKVSNKGLPSSIEKTISKAKGQPREPQVYTLPPCRDELTKNQVSLWCLVKGFYPSDIAVEWESNGQPENNYKTTPPVLDSDGSFFLYSKLTVDKSRWQQGNVFSCSVMHEALHNHYTQKSLSLSPGK
light: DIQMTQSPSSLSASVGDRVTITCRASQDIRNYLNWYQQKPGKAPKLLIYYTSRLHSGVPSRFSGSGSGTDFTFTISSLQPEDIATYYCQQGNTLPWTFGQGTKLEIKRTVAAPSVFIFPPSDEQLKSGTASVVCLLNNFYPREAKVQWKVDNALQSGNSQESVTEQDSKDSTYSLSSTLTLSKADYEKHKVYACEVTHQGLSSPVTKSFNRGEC
notes: The scDb is monospecific for HER3; the CD3 site sits in the Fab arm; also called scDb3-43x3-43-Fc(hole)Δab + FdhuU3-Fc(knob)Δab + VLhuU3-CLK
For the molecule B2, the EC50 in [1] turned out to be 8700 pM; in test [2], 249 pM; in test [4] it was 700 pM.

B3: scDb/scFv-Fc (2-1)+1, trivalent bispecific anti-EGFRxanti-CD3 (bispecific antibody)
chain 1: QVQLVQSGAEVKKPGSSVKVSCKASGGTFSGYTMNWVRQAPGQGLEWMGLINPYKGVSTYNGKFKDRVTITADKSTSTAYMELSSLRSEDTAVYYCARSGYYGDSDWYFDVWGQGTLVTVSSGGGGSDIQLTQSPSFLSASVGDRVTITCRASQSIGTNIHWYQQKPGKAPKLLIKYASESISGVPSRFSGSGSGTEFTLTISSLQPEDFATYYCQQNNNWPTTFGAGTKLEIKRGGGGSGGGGSGGGGSEVQLVESGGGLVQPGGSLRLSCAASGFSLTNYGVHWVRQAPGKGLEWLGVIWSGGNTDYNTPFTSRFTISRDNSKNTLYLQMNSLRAEDTAVYYCARALTYYDYEFAYWGQGTTVTVSSGGGGSDIQMTQSPSSLSASVGDRVTITCRASQDIRNYLNWYQQKPGKAPKLLIYYTSRLHSGVPSRFSGSGSGTDFTFTISSLQPEDIATYYCQQGNTLPWTFGQGTKLEIKRAAADKTHTCPPCPAPPVAGPSVFLFPPKPKDTLMISRTPEVTCVVVDVSHEDPEVKFNWYVDGVEVHNAKTKPREEQYNSTYRVVSVLTVLHQDWLNGKEYKCKVSNKGLPSSIEKTISKAKGQPREPQVCTLPPSRDELTKNQVSLSCAVKGFYPSDIAVEWESNGQPENNYKTTPPVLDSDGSFFLVSKLTVDKSRWQQGNVFSCSVMHEALHNHYTQKSLSLSPGK
chain 2: EVQLVESGGGLVQPGGSLRLSCAASGFSLTNYGVHWVRQAPGKGLEWLGVIWSGGNTDYNTPFTSRFTISRDNSKNTLYLQMNSLRAEDTAVYYCARALTYYDYEFAYWGQGTTVTVSSGGGGSGGGGSGGGGSDIQLTQSPSFLSASVGDRVTITCRASQSIGTNIHWYQQKPGKAPKLLIKYASESISGVPSRFSGSGSGTEFTLTISSLQPEDFATYYCQQNNNWPTTFGAGTKLEIKRAAADKTHTCPPCPAPPVAGPSVFLFPPKPKDTLMISRTPEVTCVVVDVSHEDPEVKFNWYVDGVEVHNAKTKPREEQYNSTYRVVSVLTVLHQDWLNGKEYKCKVSNKGLPSSIEKTISKAKGQPREPQVYTLPPCRDELTKNQVSLWCLVKGFYPSDIAVEWESNGQPENNYKTTPPVLDSDGSFFLYSKLTVDKSRWQQGNVFSCSVMHEALHNHYTQKSLSLSPGK
notes: also called scDbhuU3xhu225-Fc(hole)Δab + scFvhu225-Fc(knob)Δab
Regarding B3, the EC50 in test [5] was 100 pM; in test [6], 100 pM; in [7] it was 100 pM; in [8], 16300 pM; in test [9], 700 pM; in test [10], 200 pM. The “EC50 of PBMC cytotoxicity on FaDu cells, E:T 5:1” value in test [11] turned out to be 27 pM. Moreover, in [11], the “EC50 of PBMC cytotoxicity on SKBR-3 cells, E:T 5:1” value came to 277 pM.

B4: scDb/Fab-Fc (2-1)+1, trivalent bispecific anti-EGFRxanti-CD3 (bispecific antibody)
chain: B3 chain 1
heavy: EVQLVESGGGLVQPGGSLRLSCAASGFSLTNYGVHWVRQAPGKGLEWLGVIWSGGNTDYNTPFTSRFTISRDNSKNTLYLQMNSLRAEDTAVYYCARALTYYDYEFAYWGQGTTVTVSSASTKGPSVFPLAPSSKSTSGGTAALGCLVKDYFPEPVTVSWNSGALTSGVHTFPAVLQSSGLYSLSSVVTVPSSSLGTQTYICNVNHKPSNTKVDKKVEPKSCGTDKTHTCPPCPAPPVAGPSVFLFPPKPKDTLMISRTPEVTCVVVDVSHEDPEVKFNWYVDGVEVHNAKTKPREEQYNSTYRVVSVLTVLHQDWLNGKEYKCKVSNKGLPSSIEKTISKAKGQPREPQVYTLPPCRDELTKNQVSLWCLVKGFYPSDIAVEWESNGQPENNYKTTPPVLDSDGSFFLYSKLTVDKSRWQQGNVFSCSVMHEALHNHYTQKSLSLSPGK
light: DIQLTQSPSFLSASVGDRVTITCRASQSIGTNIHWYQQKPGKAPKLLIKYASESISGVPSRFSGSGSGTEFTLTISSLQPEDFATYYCQQNNNWPTTFGAGTKLEIKRTVAAPSVFIFPPSDEQLKSGTASVVCLLNNFYPREAKVQWKVDNALQSGNSQESVTEQDSKDSTYSLSSTLTLSKADYEKHKVYACEVTHQGLSSPVTKSFNRGEC
notes: also called scDbhuU3xhu225-Fc(hole)Δab + Fdhu225-Fc(knob)Δab + VLhu225-CLκ
Take B4: the EC50 in [5] came to 100 pM; in [6], 30 pM; in test [7], 30 pM; in test [8] it was 1400 pM; in test [9], 200 pM; in test [10] it was 200 pM. In addition, the “EC50 of PBMC cytotoxicity on FaDu cells, E:T 5:1” value in [11] came out at 56 pM. Also, the “EC50 of PBMC cytotoxicity on SKBR-3 cells, E:T 5:1” value in [11] was determined as 209 pM.

The record behind these values is patent US20220396635A1 (UNIVERSIT T STUTTGART, published 2022).
